Reference: IntAct's records for PubMed 18309292

B1: Ras-related protein Rap-1b (Homo sapiens), P61224 (parent)
chain: MREYKLVVLGSGGVGKSALTVQFVQGIFVEKYDPTIEDSYRKQVEVDAQQCMLEILDTAGTEQFTAMRDLYMKNGQGFALVYSITAQSTFNDLQDLREQILRVKDTDDVPMILVGNKCDLEDERVVGKEQGQNLARQWNNCAFLESSAKSKINVNEIFYDLVRQINRKTPVPGKARKKSSCQLL

Variants of: B1
Settings: with rpgp1_human RAP1GAP

| effect of a mutation on the interaction | Variant |
| --- | --- |
| disrupting interaction | Q63E |

Variants of: B1
Settings: with rpgp1_human RAP1GAP
Remark: another data set of the same source

| effect of a mutation on the interaction | Variant |
| --- | --- |
| disrupting interaction | F64A |
